Data published in US20230277689.

Biological target: plasma purified C3b (Comptech), P01024
Sequence (P01024 whole entry, looked up): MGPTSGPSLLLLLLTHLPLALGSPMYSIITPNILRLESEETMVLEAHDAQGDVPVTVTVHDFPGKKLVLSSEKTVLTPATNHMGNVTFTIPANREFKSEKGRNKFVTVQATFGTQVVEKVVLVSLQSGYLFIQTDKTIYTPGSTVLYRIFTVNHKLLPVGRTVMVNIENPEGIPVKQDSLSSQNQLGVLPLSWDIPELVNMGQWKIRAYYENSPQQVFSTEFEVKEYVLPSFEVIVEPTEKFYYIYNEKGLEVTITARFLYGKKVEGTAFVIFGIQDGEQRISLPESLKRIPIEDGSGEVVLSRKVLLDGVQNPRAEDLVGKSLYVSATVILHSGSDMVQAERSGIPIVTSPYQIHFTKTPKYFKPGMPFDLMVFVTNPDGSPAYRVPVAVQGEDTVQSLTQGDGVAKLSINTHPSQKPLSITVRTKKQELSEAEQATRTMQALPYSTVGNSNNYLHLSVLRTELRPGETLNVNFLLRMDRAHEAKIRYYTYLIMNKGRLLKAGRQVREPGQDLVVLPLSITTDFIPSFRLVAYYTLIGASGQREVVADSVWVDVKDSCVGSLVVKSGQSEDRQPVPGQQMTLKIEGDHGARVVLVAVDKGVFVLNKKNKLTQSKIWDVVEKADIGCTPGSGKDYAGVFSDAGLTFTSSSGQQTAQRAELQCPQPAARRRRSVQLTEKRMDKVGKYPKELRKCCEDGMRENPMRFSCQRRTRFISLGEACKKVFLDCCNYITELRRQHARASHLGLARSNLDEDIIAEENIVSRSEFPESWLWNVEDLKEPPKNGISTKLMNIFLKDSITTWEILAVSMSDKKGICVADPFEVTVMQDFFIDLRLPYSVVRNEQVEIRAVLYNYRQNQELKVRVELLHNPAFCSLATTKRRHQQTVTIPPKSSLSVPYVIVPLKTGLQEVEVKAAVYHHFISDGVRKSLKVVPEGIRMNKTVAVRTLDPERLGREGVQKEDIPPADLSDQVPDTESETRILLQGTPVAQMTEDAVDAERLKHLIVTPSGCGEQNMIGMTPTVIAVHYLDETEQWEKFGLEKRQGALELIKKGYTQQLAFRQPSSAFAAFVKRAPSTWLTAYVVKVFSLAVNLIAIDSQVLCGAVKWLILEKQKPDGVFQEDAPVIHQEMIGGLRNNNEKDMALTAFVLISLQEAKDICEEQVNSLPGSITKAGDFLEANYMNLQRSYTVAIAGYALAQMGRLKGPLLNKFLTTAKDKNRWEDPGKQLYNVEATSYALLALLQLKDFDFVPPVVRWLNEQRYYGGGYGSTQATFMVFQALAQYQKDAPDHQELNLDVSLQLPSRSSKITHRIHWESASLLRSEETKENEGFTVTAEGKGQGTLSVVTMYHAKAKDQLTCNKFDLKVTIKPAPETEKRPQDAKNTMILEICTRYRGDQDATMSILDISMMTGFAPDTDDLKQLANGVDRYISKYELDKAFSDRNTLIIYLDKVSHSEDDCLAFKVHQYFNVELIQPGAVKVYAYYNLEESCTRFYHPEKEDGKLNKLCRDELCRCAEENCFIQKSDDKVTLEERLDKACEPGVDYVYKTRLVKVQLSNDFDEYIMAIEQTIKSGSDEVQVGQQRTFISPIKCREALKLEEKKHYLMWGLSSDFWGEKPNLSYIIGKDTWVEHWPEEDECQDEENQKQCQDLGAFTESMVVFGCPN

Row | Protein | C3b cleavage assay (with CFH as co-factor; immunoblot with clone 9)
1 | plasma purified human CFI (Comptech) (protein) KVTYTSQEDLVEKKCLAKKYTHLSCDKVFCQPWQRCIEGTCVCKLPYQCPKNGTAVCATNRRSFPTYCQQKSLECLHPGTKFLNNGTCTAEGKFSVSLKHGNTDSEGIVEVKLVDQDKTMFICKSSWSMREANVACLDLGFQQGADTQRRFKLSDLSINSTECLHVHCRGLETSLAECTFTKRRTMGYQDFADVVCYTQKADSPMDDFFQCVNGKYISQMKACDGINDCGDQSDELCCKACQGKGFHCKSGVCIPSQYQCNGEVDCITGEDEVGCAGFASVTQEETEILTADMDAERRRIKSLLPKLSCGVKNRMHIRRKRIVGGKRAQLGDLPWQVAIKDASGITCGGIYIGGCWILTAAHCLRASKTHRYQIWTTVVDWIHPDLKRIVIEYVDRIIFHENYNAGTYQNDIALIEMKKDGNKKDCELPRSIPACVPWSPYLFQPNDTCIVSGWGREKDNERVFSLQWGEVKLISNCSKFYGNRFYEKEMECAGTYDGSIDACKGDSGGPLVCMDANNVTYVWGVVSWGENCGKPEFPGVYTKVANYFDWISYHVGRPFISQYNV | C3b is degraded by CFIpl to iC3b and C3dg
2 | human Complement Factor I expressed from pAAV.CFI / AAV.CFI (cDNA of SEQ ID NO: 2, Genbank NM_000204.4) (protein) KVTYTSQEDLVEKKCLAKKYTHLSCDKVFCQPWQRCIEGTCVCKLPYQCPKNGTAVCATNRRSFPTYCQQKSLECLHPGTKFLNNGTCTAEGKFSVSLKHGNTDSEGIVEVKLVDQDKTMFICKSSWSMREANVACLDLGFQQGADTQRRFKLSDLSINSTECLHVHCRGLETSLAECTFTKRRTMGYQDFADVVCYTQKADSPMDDFFQCVNGKYISQMKACDGINDCGDQSDELCCKACQGKGFHCKSGVCIPSQYQCNGEVDCITGEDEVGCAGFASVAQEETEILTADMDAERRRIKSLLPKLSCGVKNRMHIRRKRIVGGKRAQLGDLPWQVAIKDASGITCGGIYIGGCWILTAAHCLRASKTHRYQIWTTVVDWIHPDLKRIVIEYVDRIIFHENYNAGTYQNDIALIEMKKDGNKKDCELPRSIPACVPWSPYLFQPNDTCIVSGWGREKDNERVFSLQWGEVKLISNCSKFYGNRFYEKEMECAGTYDGSIDACKGDSGGPLVCMDANNVTYVWGVVSWGENCGKPEFPGVYTKVANYFDWISYHVGRPFISQYNV | CFI secreted from transduced cell lines is functionally active and cleaves the α-chain of C3b to iC3b
3 | human Complement Factor I expressed from pAAV.CFIco / AAV.CFIco (codon-optimised cDNA of SEQ ID NO: 8) (protein) KVTYTSQEDLVEKKCLAKKYTHLSCDKVFCQPWQRCIEGTCVCKLPYQCPKNGTAVCATNRRSFPTYCQQKSLECLHPGTKFLNNGTCTAEGKFSVSLKHGNTDSEGIVEVKLVDQDKTMFICKSSWSMREANVACLDLGFQQGADTQRRFKLSDLSINSTECLHVHCRGLETSLAECTFTKRRTMGYQDFADVVCYTQKADSPMDDFFQCVNGKYISQMKACDGINDCGDQSDELCCKACQGKGFHCKSGVCIPSQYQCNGEVDCITGEDEVGCAGFASVTQEETEILTADMDAERRRIKSLLPKLSCGVKNRMHIRRKRIVGGKRAQLGDLPWQVAIKDASGITCGGIYIGGCWILTAAHCLRASKTHRYQIWTTVVDWIHPDLKRIVIEYVDRIIFHENYNAGTYQNDIALIEMKKDGNKKDCELPRSIPACVPWSPYLFQPNDTCIVSGWGREKDNERVFSLQWGEVKLISNCSKFYGNRFYEKEMECAGTYDGSIDACKGDSGGPLVCMDANNVTYVWGVVSWGENCGKPEFPGVYTKVANYFDWISYHVGRPFISQYNV | CFI secreted from transduced cell lines is functionally active and cleaves the α-chain of C3b to iC3b
